We go through 30 sequences from the nanobody polyreactivity screen of Harvey et al. (2022).

This series is described as follows: yeast display, Sf9 membrane polyspecificity reagent, FACS + sequencing; frameworks hold sequencing errors. The method, boiled down: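 Genes from sorted yeast were amplified by colony PCR, read by MiSeq 2 × 250 sequencing and filtered on CDR length. These cells carried a synthetic nanobody library in Saccharomyces cerevisiae BJ5465 and were sorted by FACS into low and high (top ~1%) gates on anti-HA and streptavidin fluorescence. Polyreactivity is labelled according to the gate of origin.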
Take “QVQLVESGGGLVQAGGSLRLSCAASGFIFSSYAKGWYRQAPGKETELVAAITSGGSTNYADSVKGRFTISRDNAKNTVYLQMNSLYPEDTAVYYCATVPGGSWFFHWWSTGGDDEYWGQGTQVTVSS”: the “polyreactivity (PSR sort gate)” value is recorded as “low polyreactivity”. For the sequence “QVQLVESGGGLVQAGGSLRLSCAASGFIFSSYAMGWYRQAPGKERELVAAISRSGGRTNYADSVKGRFTISRDNAKNTVYLQMNSLKPDDTAVYYCNARGRGKYPPYGYDYWGQGTQVTVSS”, the “polyreactivity (PSR sort gate)” value is “high polyreactivity”. Regarding “QVQLVESGGGLVQAGGSLRLSCAASGFIFSSYAMGWYRQAPGKERELVAAITSGGSTNYADSVKGRFTISRDNAKNTVYLQMNSLKPEDTAVYYCATVPGRSWFFHWWSTGGDDEYWGQGTQVTVSS”, the “polyreactivity (PSR sort gate)” value is listed as “low polyreactivity”. To “QVQLVESGGGLVQAGGSLRLSCAASGFIFSTNAMGWYRQAPGKERELVAAISRRGGNTYYADSVKGRFTISRDNAKNTVYLQMNSLKPEDTAVDYCNAVFRSGGLDYWGQGTQVTVSS” belongs “high polyreactivity”. To “QVQLVESGGGLVQAGGSLRLSCAASGFIFSTNAMGWYRQAPGKERELVAAISRRGGNTYYADSVKGRFTISRDNAKNTVYLQMNSLKPEDTAVYYCNAVFRSGGLDYWGQGTQVTVSS” belongs “high polyreactivity”. The result for “QVQLVESGGGLVQAGGSLRLSCAASGFIFSTYVMGWYRQAPGKERELVAAISASGGRTYYADSVKGRFTISRDTAKNTVYLQMNSLKPEDTAVFYCAAEITDTYRWALNYWGQGTQVTVSS” reads “high polyreactivity”; that for “QVQLVESGGGLVQAGGSLRLSCAASGFIFSWNAMGWYRQAPGKERELVAAITNRGGSTYYADSVKGRFTISRDNAKNTVYLQMNSLKPEDTAVYYCAKRSSRWGRTPYDYWGQGTQVTVSS”, “high polyreactivity”; that for “QVQLVESGGGLVQAGGSLRLSCAASGFIFSYLYAMGWYRQAPGKERELVAAITYNGGSTYYADSVKGRFTISRDIAKNTVYLQMNSLKPEDTAVYYCAARKRYRANSYWEMAYWGQGTQVTVSS”, “high polyreactivity”. As for “QVQLVESGGGLVQAGGSLRLSCAASGFIFSYNAMGWYRQAPGKERELVAAISSRGGSTYYADSVKGRFTISRDNAKNTVYLQTKSLKPEDTAVYYCAVASRRVYTAPYDYWGQGTQVTVSS”, the “polyreactivity (PSR sort gate)” value is reported as “high polyreactivity”. As for “QVQLVESGGGLVQAGGSLRLSCAASGFIFSYNAMGWYRQAPGKERELVAAISSRGGSTYYADSVMGRFTISRDNAKNTVYLQMNSLKPEDTAVSYCAVASRRVYTAPSDYWGQGTQVTVSS”, the “polyreactivity (PSR sort gate)” value is recorded as “high polyreactivity”. The result for “QVQLVESGGGLVQAGGSLRLSCAASGFIFSYYAMGWYIQEPGKERELVAAITVTGGNTYYADSVKGRFTISRDNAKNTVYLQMNSLIPEDTAVYYCAAVVRGPGVSVYYWGLGTQVTVSS” reads “low polyreactivity”.

Regarding “QVQLVESGGGLVQAGGSLRLSCAASGFIFSYYAMGWYRQAPGKERELVAAISGRGGSTYYADSVKGRFTISRDNEKNTVYLQMNSLKPEDTAVYYCAATTLRFYRHGDYWGQGTQVTVSS”, the “polyreactivity (PSR sort gate)” value is reported as “low polyreactivity”.

For “QVQLVESGGGLVQAGGSLRLSCAASGFIFSYYAMGWYRQAPGKERELVAAITSNGGSTYYADSVKGRFTISRDNAKNTVYLQMNSLKPEDTAVYYCNVKYRYWNQGYGSWGQGTQVTVSS”, the “polyreactivity (PSR sort gate)” value is given as “high polyreactivity”. The result for “QVQLVESGGGLVQAGGSLRLSCAASGFIFSYYTMGWYRQAPGKERELVAAITSGGSTNYADSVKGRFTISRDNAKNTVYLQMNSLKPEDTAVYYCNALLWAWTLWGSGYDYWGQGTQVTVSS” reads “low polyreactivity”; that for “QVQLVESGGGLVQAGGSLRLSCAASGFIFTANAMGWYRQAPGKESELVANINRSGDSTYYADSVKGRFTISRDNAKNTVYLQMNSLKPEDTAVYYCNKDWHSQVFSAYNSYDYWGQGTQVTVSS”, “low polyreactivity”; that for “QVQLVESGGGLVQAGGSLRLSCAASGFIFTDNVMGWYRQAPGKERELVAAISRRGGSTYYADSVKGRFTISRDNAKNTVYLQMNSLKPEDTAVYYCNVARQSYLLDYWGQGTQVTVSS”, “high polyreactivity”. On to “QVQLVESGGGLVQAGGSLRLSCAASGFIFTDYAMGWYRQAPGKERELVATISWSGSSTYYADSVKGRFTISRDNEKNTVYLQMNILKPEDTGVYYCAAEFWYTYPYLVDYWRQGTQVTVSS”, for which the “polyreactivity (PSR sort gate)” value is “low polyreactivity”. To “QVQLVESGGGLVQAGGSLRLSCAASGFIFTFYAMGWYRQEPGKEREFVASIDWGDGSTYYADSVKGRFTISRDNAKNTVYLQMNSLKPEDTAVYYCAHDYDGYVWDTEYDYWGQGTQVTVSS” belongs “low polyreactivity”. To “QVQLVESGGGLVQAGGSLRLSCAASGFIFTGNAMGWYRQAPGKERELVAAITGRGSTYYADSVKGRFTISRDNAKNTVYLQMNSLKPEDTAVYYCAAKRWWQYYWGQGTQVTVSS” belongs “high polyreactivity”. The result for “QVQLVESGGGLVQAGGSLRLSCAASGFIFTGNVMGWYRQAPGKERELVAAIRWSGGRTYYADSVKGRFTISRDNAKNTVYLQMNSLKPEDTAVYYCNALGRVQGYKPGGLDYWGQGTQVTVSS” reads “high polyreactivity”; that for “QVQLVESGGGLVQAGGSLRLSCAASGFIFTGYTMGWYRQAPGKERELVARISSGDSTKYADSVKGRFTISRDNAKNTVYLQMNSLKPEDTAVYYCAATTGYTARWRNRYIYYYWGQGTQVTVSS”, “high polyreactivity”; that for “QVQLVESGGGLVQAGGSLRLSCAASGFIFTKYTMGWYRQAPGKERELVADITGRGTSTYADSVKGRFTISRDNAKNTVYLQMNSLKPEDTAVYYCAAVGWFADFLFSDINGYYWGQGTQVTVSS”, “low polyreactivity”. Take “QVQLVESGGGLVQAGGSLRLSCAASGFIFTNVMGWYRQAPGKERELVASISSGGRTYYADSVKGRFTISRDNAKNTVYLQLNSLKPEDTAVYYCAKKKLLSVPARGYDYVYYWGQGTQVTVSS”: the “polyreactivity (PSR sort gate)” value was “high polyreactivity”. As for “QVQLVESGGGLVQAGGSLRLSCAASGFIFTRNVMGWYRQAPGKERELVAGITYTSGSTYYADSVKGRFTISRDNAKNTVYLQMNSLKPEDTAVYYCAAEITRHYVFGDDYWGQGTQVTVSS”, the “polyreactivity (PSR sort gate)” value was “low polyreactivity”. To “QVQLVESGGGLVQAGGSLRLSCAASGFIFTRYAMGWYRQAPGKERELVAAISASGGSTYYADSVKGRFTISRDNAKNTVYLQMKSLKPEETAVYYCAAVPYRYTYDYWGQGTQLTVSS” belongs “high polyreactivity”; to “QVQLVESGGGLVQAGGSLRLSCAASGFIFTSYAMGWYRQAPGKERELVAAITDGGSTNYADSVKGRFTISRDNAKNTVYLQMNSLKPEDTAVYYCAADGFKTVLPEYDYWGQGTQVTVSS”, “low polyreactivity”. On to “QVQLVESGGGLVQAGGSLRLSCAASGFIFTYNAMGWYRQAPGKETEFVASISRSGGRTYYADSVKGRFTISRDNAKNTVYLQMNSLKPEDTAVYYCAARNAYVYGMDYWGHGTQVTVSS”, for which the “polyreactivity (PSR sort gate)” value is given as “low polyreactivity”. To “QVQLVESGGGLVQAGGSLRLSCAASGFIFTYYAMGWYRAAPGKERELVAAIRGSGGRTYYADSVKGRFTISRDNAKNTVYLQMNSLKPEDTAVYYCTADPTWFGYVYYQYDYWGQGTQVTVSS” belongs “low polyreactivity”; to “QVQLVESGGGLVQAGGSLRLSCAASGFIFTYYAMGWYRQAPGKERELVAAISRIGGSTYYADSVKGRFTISRDNAKYTVYLQMNSLKPEDTAVYYCARYSWPLNKLAVDYWGQGTQVTVSS”, “high polyreactivity”; to “QVQLVESGGGLVQAGGSLRLSCAASGFIFTYYTMGWYRPAPGKERELVAAISRTGSTNYADSVKGRFTISRDNAKNTVYLQMNSLKPEDTAVYFCNARYRGWLTLDGGYGYWGQGTQVTVSS”, “low polyreactivity”.
